Among the data in publication PMC6938514 are stoichiometry N, percent of the dimeric fraction converted into monomers after one week and percent of the monomeric fraction converted into dimers after one week values, retold here.

The stoichiometry N is the number of molecules, sites or subunits per partner or assembly.

Assay [1] deals with MBPeng-KFL_(PYK2) (Escherichia coli | not stated) (UniProt Q14289). The assay is described as follows: SEC; large-scale Superdex 200 after the amylose column; protein applied at 15 mg/ml; 20 mM HEPES pH 7.5, 150 mM NaCl, 2 mM maltose, 2 mM DTT.
The target is the same in assay [2]. The assay is described as follows: crystal structure; dimeric SEC fractions crystallised by hanging drop at 23 °C, 15 mg/ml, pH 10.5; space group P1.
The target is the same in assay [3]. The assay can be described thus: SEC-SAXS; SWING beamline; 20 mM HEPES, 150 mM NaCl, 2 mM DTT, 2 mM maltose; dimer and monomer peaks fitted with models from the crystal structures. Background: Size exclusion chromatography separates by hydrodynamic size, large species first.
Assay [4] has as its target MBPeng-KFLFAK (Escherichia coli | not stated). The assay can be described thus: SEC; central fractions of the monomeric or dimeric peak incubated for one week at 37 °C, then analytical SEC.

Turning to “MBPeng-KFL_(PYK2) (from UniProt Q14289 790-839)”, the stoichiometry N in assay [1], in assay [2] and in assay [3] was 2 throughout.

As for “MBPeng-KFLFAK (from UniProt Q05397 805-832)”, in assay [4], the percent of the dimeric fraction converted into monomers after one week at 37 °C was 20% and the percent of the monomeric fraction converted into dimers after one week at 37 °C came out at 20%.
